Data on 13 molecules can be found in US20110008841A1 (Amgen, published 2011).

The labels stand for the following.
B1: AMH17/AML17 (antibody, V domains shown)
VH: QVQLVQSGAEVKKPGAAVKVSCKATGYTLTSYGISWVRQAPGQGLEWMGWISAYSGNTKYAQKLQGRVTMTTDTSTSTAYMELRSLRSDDTAVYYCARKQLVFDYWGQGTLVTVSS
VL: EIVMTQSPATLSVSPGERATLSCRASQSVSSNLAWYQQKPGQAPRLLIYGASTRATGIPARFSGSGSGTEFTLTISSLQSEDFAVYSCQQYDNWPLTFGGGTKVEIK
notes: Fully human mAb from IgG2 XenoMouse mice; also called AM-17; antibody N
B2: AMH16/AML16 (antibody, IgG2, V domains shown)
VH: B1 VH with A17S, T25S, L29F, S55N, A79V
VL: EIVMTQSPATLSVSPGERATLSCRASQSISTSLAWYQQKPGQAPRLLIYGTSTRATGIPARFSGSGSGTEFTLTISSLQSEDFAVYFCQQYDIWPLTFGGGTKVEIK
notes: Fully human mAb from IgG2 XenoMouse mice; also called AM-16; antibody O
B3: AMH12/AML12 (antibody, IgG2, V domains shown)
VH: B1 VH with A17S, T25S, A53T, S55K, K59N
VL: B2 VL with T31S, T51A, D82N, F87Y, I93N
notes: Fully human mAb from IgG2 XenoMouse mice; also called AM-12; antibody M
B4: AMH13/AML13 (antibody, IgG2, V domains shown)
VH: QVQLVESGGGVVQPGRSLRLSCAASGFTFSSYGMQWVRQAPGKGLEWVAVIWYDGNKKYYADSVKGRFTISRDNSKNTLYLQMNSLRAEDTAVYYCARGRVRDYYYGMDVWGQGTTVTVSS
VL: DIVMTQTPLSLSVTPGQPASIACKSSQSLLHSDGKTYLYWYLQKPGQPPQLLIYEVSTRFSGVPDRFSGSGSGTDFTLKISRVEAEDVGVFYCMQSIQLPLTFGGGTKVEIK
notes: Fully human mAb from IgG2 XenoMouse mice; also called AM-13
B5: Germline version A (antibody, V domains shown)
VH: B1 VH with A17S, T25S, L29F, S31R, A53T, K59N, K99R, V102Y
VL: B2 VL with I29V, T31S, S32N, G50D, T51A, E70D, F87Y, I93N
B6: Germline version B (antibody, V domains shown)
VH: B1 VH with A17S, T25S, L29F, S31R, A53T, K59N, K99R, V102Y
VL: B2 VL with I29V, T31S, S32N, G50D, T51A, F87Y, I93N
B7: AMH15/AML15 (antibody, V domains shown)
VH: B4 VH
VL: EIVMTQSPATLSVSPGERVTLSCRASQSVSSNLAWFQQKPGQAPRPLIYDASTRAAGIPARFSGSGSGTDFTLTISSLQSEDFAVYYCQQYDNWPLTFGGGTKVEIK
notes: also called AM-15
B8: AMH14/AML14 (antibody, V domains shown)
VH: B1 VH with A17S, T25S, L29F, S31R, A53T, K59N, K99R, V102Y
VL: B7 VL with V19A, A56T, I58V
notes: Fully human mAb from IgG2 XenoMouse mice; Biotinylated in the Octet assay; also called AM-14; antibody K
B9: AMH21/AML21 (antibody, IgG2, V domains shown)
VH: EVQLVESGGGSVQPGGSLRLSCAASGFTFSSYSMNWVRQAPGKGLEWVSIISSRSSIIHYADSVKGRFTISRDNAKNSLYLQMNSLRDEDTAVYYCARPKVGGGMDVWGQGTTVTVSS
VL: DIQMTQSPSSLSASVGDRVTITCRASQGISNYLAWYQQKPGKFPELLIYAASTLQSGVPSRFSGSGSGTDFTLTISSLQPEDVATYYCQKYNRAPFTFGPGTKVDIK
notes: Fully human mAb from IgG2 XenoMouse mice; also called AM-21; antibody Q
B10: AMH22/AML22 (antibody, IgG2, V domains shown)
VH: B1 VH with A17S, T25S, L29F, S31R, K59N, K99R, V102Y
VL: B7 VL
notes: Fully human mAb from IgG2 XenoMouse mice; also called AM-22; antibody I
B11: AMH11/AML11 (antibody, IgG2, V domains shown)
VH: QVQLVESGGGVVQPGRSLRLSCATSGITFSSYGMHWVRQAPGKGLEWVAVIWYDGSNKYYADSVKGRFTISRDNSKNTLYLQMNSLRAEDTAVYYCARDTKDYWGQGTLVTVSS
VL: EIVMTQSPATLSVSPGERATLSCRASQSVSSNLAWYQQKPGQAPRLLIYGASTRAAGIPARFSGGGSGTAFTLTISNLQSEDFAVYYCQHYINWPKWTFGQGTKVDIK
notes: Fully human mAb from IgG2 XenoMouse mice; also called AM-11; antibody A
B12: AMH5/AML5 (antibody, V domains shown)
VH: QVQLQESGPGLVKPSETLPLTCTVSGGSIRSYYWSWIRQPAGKGLEWIGRIYRSGNTIYNPSLKSRVTMSIDTSKNQFSLTLSSVTAADTAVYYCARENYSESSGLYYYYGMDVWGQGTTVTVSS
VL: DIQMTQSPSSLSASVGDRVTITCRASQGIRNDLGWYQQKPGKAPKRLIYAASSFQSGVPSRFSGSGSGTGFTLTISSLQPEDFATYYCLQHNSYPPTFGQGTKVEIK
notes: also called AM-5
B13: AMH1/AML1 (antibody, IgG2, V domains shown)
VH: QVQLQESGPGLVKPSETLSLTCTVSGGSISNYYWNWIRQSPGKGLEWIGDIYYSGSTNYNPSLKSRVTISVDTSKNQFSLKLSSVTTADTAVYYCARDGELANYYGSGSYQFYYYYGMDVWGQGTTVTVSS
VL: B12 VL with Q3L, F54L, G70E, Y94N, P96F, Q100P, E105D
notes: Fully human mAb from IgG2 XenoMouse mice; also called AM-1; antibody H

Residue numbers refer to the chain shown, from its start.

In one assay the target is T1, cynomolgus IL-17RA on cells (cynomolgus).
T1 construct: whole, on cells; also called CHO-cynoIL-17RA; cyno IL-17RA+ CHO cells
Nature of the assay: FACS, biotin-huIL-17A on cyno IL-17RA+ CHO cells with non-clonal supernatant; lower = more inhibition. Background: A flow cytometer gives signals particle by particle.
Method: Non-clonal hybridoma supernatants were prepared in volumes of 1-2 mls (the Ig concentrations were not determined for these supernatants). […] Anti-IL-17RA non-clonal hybridomas were selected for sub-cloning based on their performance in the CHO-IL-17RA FACS assay and HFF bioassay.
B1 displayed an MFI of 8. The molecule B2 gave an MFI of 6.

Regarding B3, the MFI amounted to 6. With B4, the MFI amounted to 6.

In a further assay the target is Human IL-17RA full-length expressed on the surface of cells (human, UniProt Q96F46 33-866). Put plainly: cell-based or functional assay.
Take B5: the “IC50, HFF bioassay (ligand not named on the sheet)” value was around 107 nM.

For the molecule B6, the “IC50, HFF bioassay (ligand not named on the sheet)” value is around 103 nM.

The next assay has as its target T1, cynomolgus IL-17RA on cells. Put plainly: FACS, biotin-huIL-17A on cyno IL-17RA+ CHO cells with non-clonal supernatant; lower = more inhibition. This is another data set of the same source.
Method: The anti-IL-17RA antibodies were characterized. Non-clonal hybridoma supernatants were prepared in volumes of 1-2 mls (the Ig concentrations were not determined for these supernatants).
On to B7, for which the MFI is 6. Take B8: the MFI came out at 10. The molecule B9 had an MFI of 6.

For another assay the target is unchanged. Put plainly: FACS, biotin-huIL-17A on cyno IL-17RA+ cells with non-clonal supernatant; lower = more inhibition.
Consider B10, for which the MFI amounted to 18. Still for that read-out and setting: under B11 stands 9; under B12, 9.

With B13, the MFI stood at 11.
